Experimental data from patent publication US9533026B2, “Polypeptide compounds for inhibiting angiogenesis and tumor growth” (VasGene Therapeutics, Inc., priority 2004, dated 2017).
“Also recorded” adds a separate entry of the source.

How the values were obtained:
EphB4 [1] = test: EphB4 expression in PC3 cells on EGFR / IGF-1R blockade (Western blot); format: cell-based, human; settings: AG1478 1 nM 36 hours, MAB391 2 μg/ml overnight
Description: A) Western blot of PC3 cells treated with or without EGFR specific inhibitor AG1478 (1 nM) for 36 hours. […] The membrane was stripped and reprobed with β-actin, which was unaffected. B) Western Blot of triplicate samples of PC3 cells treated with or without IGFR-1 specific neutralizing antibody MAB391 (2 μg/ml; overnight). The membrane was sequentially probed with EphB4, IGFR-1 and β-actin antibodies.

EphB4 [2] = test: EphB4 expression in HNSCC cell lines on EGFR inhibition (Western blot); format: cell-based, human
Description: Western blot of total cell lysates sequentially probed with EphB4 monoclonal antibody, stripped and reprobed with β-actin monoclonal antibody as described for FIG. 39C. B) Effect of the specific EGFR inhibitor AG1478 on EphB4 expression: Western blot of crude cell lysates of SCC15 treated with 0-1000 nM AG 1478 for 24 h in media supplemented with 10% FCS (left) or with […] AG 1478 for 4, 8, 12 or 24 h (right). Shown are membranes sequentially probed for EphB4 and β-actin. C) Effect of inhibition of EGFR signaling on EphB4 expression in SCC cell lines: Cells maintained in growth media containing 10% FCS were treated for 24 hr with 1 μM AG 1478, after which crude cell lysates were analyzed by Western blots of cell lysates sequentially probed with for EGFR, EphB4, ephrin B2 and β-actin antibodies. Specific signal for EGFR was detected at 170 kD and ephrin B2 at 37 kD in addition to EphB4 and β-actin as described in FIG. 1C. β-actin serves as loading and transfer control.

EphrinB2 = biological target: T1, EphrinB2 (Homo sapiens, UniProt P52799); test: EphrinB2 (B2-AP) binding assay on affinity magnetic beads
T1 construct: protein fusion of Ephrin B2 ectodomain with placental alkaline phosphatase
T1 sequence (P52799 28-229 limits assumed): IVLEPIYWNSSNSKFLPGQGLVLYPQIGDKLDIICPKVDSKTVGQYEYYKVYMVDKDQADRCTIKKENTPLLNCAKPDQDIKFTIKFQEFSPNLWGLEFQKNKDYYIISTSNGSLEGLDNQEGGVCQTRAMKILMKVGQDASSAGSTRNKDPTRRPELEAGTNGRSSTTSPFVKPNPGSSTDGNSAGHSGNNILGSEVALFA
From the text: To test whether the B4-HSA fusion property retained the ability of the EphB4 extracellular domain to bind to EphrinB2, the ability of the purified B4-HSA fusion was compared to that of GCF2F, GCF2, GC, CF and B4-Fc fusion, which comprises the extracellular domain of B4 fused to hIgG1 Fc as described in Example 1. Biotinylated or His-tag protein samples were inoculated with the corresponding affinity magnetic beads and B2-AP for an hour at room temperature, before addition of PnPP. Results of binding assays are shown on FIG. 67.
Fractions 1, 2 and 3 of biotinylated and PEGylated sB4 from the SP column purification, corresponding to polypegylated, monopegylated and unpegylated biotinylated sB4, were tested for their ability to bind EphrinB2 using the standard assay. Results of this experiment are shown on FIG. 72.

[3] = In vivo stability in mice after intravenous injection; parameters: species or system mouse; settings: for stability in vivo relative to sB4 / EphB4 ectodomain: mice
Description: The stability of the purified biotinylated sB4 and sB4-HSA were assayed in vivo. Each of the proteins were intravenously injected into the tail of mice in the amount of 0.5 nmoles per mouse. Blood from the eye of each mouse was taken in time frames of 15 min (0 days), 1, 2, 3 and 6 days. […] of obtained serum was used in binding assay with Ephrin-B2-Alkaline Phosphatase fusion protein and Streptavidin-coated magnetic beads as a solid phase. […] For example, one day after injection, the levels of sB4-HSA in the blood of the mice were 5-fold greater than those of sB4.
Fractions 1, 2 and 3 of biotinylated and PEGylated sB4 from the SP column purification, corresponding to polypegylated, monopegylated and unpegylated biotinylated sB4, were introduced by intravenous injection into mice in the amount of 0.5 nMoles/mouse. Blood from each mouse was taken in time frame of 10 min, 1, 2 and 3 days. […] of obtained serum was used in binding assay with Ephrin-B2-Alkaline Phosphatase fusion protein and Streptavidin-coated magnetic beads as a solid phase. Signals, obtained at 10 min were taken as 100%. The two mice for each protein were of a different strain.

Compound | EphB4 level (EphB4 [1]) | total amount of EphB4 (EphB4 [2]; SCC-9, -12, -13 and -71) | total amount of EphB4 (EphB4 [2]; SCC-15 and SCC-25, 24 h, 1 µM) | binding activity towards EphrinB2 (EphrinB2) | binding to EphrinB2 compared with the B4-Fc fusion (EphrinB2) | stability in vivo relative to sB4 / EphB4 ectodomain [3] | levels in the blood relative to sB4 ([3]; one day after injection, i.v. 0.5 nmoles per mouse) [fold]
COc1cc2ncnc(Nc3cccc(Cl)c3)c2cc1OC [AG1478] | down-regulated; also recorded: Decreased EphB4 signal | no effect | marked loss | – | – | – | –
B4-HSA: EphB4 ectodomain fused to human serum albumin, mature form SEQ ID NO:19 | – | – | – | retain most of its binding activity | superior | superior stability | 5
EphB4 ectodomain fusion to the C-terminus of HSA: EphB4 ectodomain fused to the C-terminus of HSA | – | – | – | retain the ability to bind | – | enhanced stability | –
